Assay results: paper PMC3350781 (Current Biology, 2011)

Molecular target: T1, Wsp1p poly (p)-VCA (residues 129-574 including the polyproline domain and VCA) (S. pombe, UniProt O36027 129-574)
T1 sequence (looked up): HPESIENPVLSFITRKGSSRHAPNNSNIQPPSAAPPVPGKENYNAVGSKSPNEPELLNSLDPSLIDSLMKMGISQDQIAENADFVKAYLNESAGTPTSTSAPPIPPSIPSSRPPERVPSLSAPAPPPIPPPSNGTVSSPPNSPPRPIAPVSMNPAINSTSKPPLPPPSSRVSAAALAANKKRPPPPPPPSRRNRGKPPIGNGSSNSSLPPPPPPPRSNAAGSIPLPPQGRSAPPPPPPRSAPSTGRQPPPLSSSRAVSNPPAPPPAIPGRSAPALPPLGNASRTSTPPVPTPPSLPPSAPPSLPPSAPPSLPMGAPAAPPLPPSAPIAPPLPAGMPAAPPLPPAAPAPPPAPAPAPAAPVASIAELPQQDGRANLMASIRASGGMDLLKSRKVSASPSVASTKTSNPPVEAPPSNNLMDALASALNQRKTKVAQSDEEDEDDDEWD
Experiment: pull-down

| Binder | Kd |
| --- | --- |
| GST-Bzz1pSH3SH3 (residues 521-642) (domain or fragment, S. pombe, UniProt Q09746 521-642, looked up) VVLYDFTGEHEGVITASEGQEFTLLEPDDGSGWVRVKIDGTDGLIPASYVKLNDELNTSVTLDGDSSYVKALYAYTAQSDMELSIQEGDIIQVTNRNAGNGWSEGILNGVTGQFPANYVTDV | ~0.1 µM |
| GST-Bzz1pSH3 (residues 586-642) (domain or fragment, S. pombe, UniProt Q09746 586-642, looked up) SSYVKALYAYTAQSDMELSIQEGDIIQVTNRNAGNGWSEGILNGVTGQFPANYVTDV | ~2 µM |
